Experiment: soluble on expression in E. coli; label from the status in PepcDB or PDB records
With “MKLTQLDLSHNNLSVIPTWALTYLHSLQILHLENNRIDVLRSNTFDETQLNNLQFLYLDNNQLRIIPNLAFNHLRLVVLMLANNRITEIQKMSLPQTLKFLVLRNNLLTQIPYVALNDLKTLQSIDLEGNNITHLMDTNEVTFESEMKVILRNNKVRRLDKHSFRSFRKIRELDISYNQIQTVEDSSFETVGHMQSLDLSYNRIAYLPRGMLKNFAKTLKTLKLAENMIHATPEALRDLRNLTHLNLNGNKLNRIDGDVLKGCTDTLVELFIANNYLEHIPHGVLSGMKQLEHLDISKNKIMSLKKPTSLLSITKEETSTVRRLNLAGNRINNMSDYLIFEHMPLLTYVDVSFNRIRFISPRVFEKLKNLESLFLQNNQLAHFPSLFRLDKLRHLMLDNNQIQKIDNFSLADLPKLQHLSLAGNQLDIITENMFGSSSSSELKSLNLAHNKIHSISSRSFSDLDNLQQLRLSHNNIRTITSMTFSNLRNLRYLDLSHNRIIKILPSALYQLPALDVLHLDHNNLNEIDRDAFRSFSDLQSLKLSHNAFRRFSCEFLGSISQVHQLDLSSNQINEIDIFCIARGIRKLSLASNSVEKINRKLLQDATELTSIDISHNGIIDVDSDAFCECRKLSHIKLSHNYIRNLWKGTRVCIPWISHLTTFCFFTKEHLERTISFSYIIVDSSQLTSFGNLSILSFANNKVDSIEDGAFENLLSLKILDLSNNPVTSWSPTAFRDLSHSISSINMANTGLFSMPKFSHRSIQSLNISCNKIYELSEKDLAPLTKVVALDISHNNLKQISSMAFEPLIHLKQLNVSANPITHLTNEHIQQLYKLYNIPDMARPYQISSILSNLPPLHTIYVDIKESALDRQFYTADTRLLRHLVVAGRNLTKIEVGAFATIRGFRVRIEIHNSSIEEFPSRIFDTLTGISILSLSLTDNKLTTFNPFQSTVAPAVNQHGTILHSLELKNNPIKCDCQFKWMDDFIRVTKFLSDHHISHDFDKVECADAQSSNLESFASAANELFSYKTKMTLLSKSEDFGLECAVKYSNPLKPLIYVLMLVCLSYL” the “soluble on expression in E. coli” value was “not soluble”. In the case of “MDTPNKDDSIIRFSVSLQQNLLDELDNRIIKNGYSSRSELVRDMIREKLVEDNWAEDNPNDESKIAVLVVIYDGGQRELNQRMIDIQHASGTHVLCTTHIHMDEHNCLETIILQGNSFEIQRLQLEIGGLRGVKFAKLTKASSFEYNE”, the “soluble on expression in E. coli” value is reported as “soluble”. In the case of “AIAPSRQLEDPGAGTPSPVRLHALAGFQQRALCHALTFPSLQRLVYSMCSLCQEENEDMVPDALQQNPGAFRLAPALPARPHRGLSTFPGAEHCLRASPKTTLSGGFFVAVIERVEMPT”, the “soluble on expression in E. coli” value is reported as “soluble”. In the case of “MGSDKIHHHHHHMFLSIGTLPEDSRFHDAMVYFDMAHLSGTDRSQMLLLPEVVDDYVGPDNPVRFIEAFIDGLDLQASGFIRVEPKLTSRPGYDPADLLKLYLYGYLNRVRSSRRLEAETHRNIEVIWLLRRLTPDHKTIANFRRVNHAAFRQVFREFVILCRQLDLFGRELLAVDGTRIKAVNNKERNFTRAALTKFIREADERLTEYMKRLDNGDAQEENTGGGGPRAKNLAEKITAIKGKRDRHKALLDELDRTGEDQISLTDMDSRAMARMTKVGVGYNIQLAVDVKHKLIAEQEVSNQVVDMGLLTQATQAAMDNLGVEQIEVVADRGYFKVEDIEACEKAGITAYVPKPLRGAAVREGFFSKDEFRYNAEKDVYVCPAGEHLSPRYEKKTRDLKLVEYCNREACRSCDLKAHCTHGYRRVGRVENEAVLDRMAARLAARPEVLDQRRETVEHPFGTIKQWMYQGSFLMRRLENVQGEFSLTALAYNIRRAITLVGVAGLIGAVRA”, the “soluble on expression in E. coli” value is reported as “not soluble”. For “AVVETAAMFDGTEGTLGRSMTLEDMELMTWAIFQSGQKIPAKVYSKILAQWDLYSYQMAVFHEAYDILLTPTVADVTPKHGQFALSESLQNQLKQIAYFDWPKQQELIWAMFADSLDWTSFTQRANLTGQPSISLPIYRNADGLSLGVQLTSAKGREDLLLLLAKQMEE”, the “soluble on expression in E. coli” value was “not soluble”. For “MSLAQTNPNSKGDQQKMINIAHRGASGHAPENTMAAFQKGFDMKVDYIEFDVHMTKDGELVLMHDLTVDRTTNGHGYVSDLTLDEIKQFDAGSWFHEDFVGEKVPTFEETLDVFRGKVGLLIELKSPERYPGMEEKVAEALKERKMDRSSNHKVIIQSFNHESMKKSKELLPHIPHGVLAGPSWANVTDEQLEEFSTYADYFNPNMTIVTPELVSRIHAVGMKIFPYTSRTQEQANRLFELKVDGIITDFPEHVYFHPVKNQEGHHHHHH”, the “soluble on expression in E. coli” value was “not soluble”. In the case of “MKDFNQRFRDLHKLRQRARKENHEQVVEEDRRSKLPKNHEAKKERDQWQVKELQDRKAAEDKGLDYERVRSLEMSADVTEKLEQKRKRKKNPDQGFTSYEDMTLRQHTRLTAALDPDLDSYKKMRECVGGEQFYPTADTLIHGNHYPTTAAMDKLTKDVHGQVKRREQYHRRRLYDPDAPIDYINEKNKKFNKKLDKYYGKYTEDIKDDLERGTAI”, the “soluble on expression in E. coli” value is reported as “not soluble”. With “MKYVEVIMSIKDEGEFFMKVLQKNEFLQKSNETLASILDMLEKLPVVKFDEIEADKAVLVIIDMTNGFAKEGALKSDAVKELIPRICELSEICDRRKIRKIAFADCHTDESPEFDAYPKHCMKGTAESEIVDEIKNIGGYTLIEKNSTNGFLEEAFRKWLLENPDINTFILTGDCTDICVQQFAITLKAYFNMNNKRARVIVPLNAVDTYDLGVHDRNLMNVMAAYNMIINGVEVVRDIVE” the “soluble on expression in E. coli” value was “not soluble”. In the case of “MGSDKIHHHHHHMVTEIELKYSLLDSNEQTKPEKIKTTISQLLSEHDVTFVHQEKQLSNHYFDTADLTLRKNRIALRTRGTKCFDETKRFEQTIKTSGTIIAGLHQRPEYNVDIGDAKPIVSLFPDIIFQPNIDINLLQQQIVELFSTHFTRHTWLVSFEDAQIEIAFDCGEVACQNYVKKPRIYEIELEFVSGDSQALLGLTKLLFSQLALRPGQLTKAARGYALYHESLTLASHVENKPPNNSAIVEQIELSMINLPKKIPLHNALTHGIEFSLNQLQLCVDSYVEVPSFNMLSKVSEQLILLRQGFWLFDELLSPDEKALRTELSYFIRTIHWVENARYIQLLINKQSSYQKENLINQELITKLQLRQSRYPRELQVLELLHSERFNNLQVDLLSLLLKRNSDETLKIDNSSSLVEFATKHLTNSTKALSDELVKLQKPQDSTSIELYLTAHSLLIRALLTTSWFSCLFAEPESDIVKRFNMPLLDIKQGIIELQSLSLLLQQLKHLPKKENKLTQWLTNKSENLITALDQSRAKALTMKPYWP”, the “soluble on expression in E. coli” value is reported as “not soluble”. In the case of “MGSDKIHHHHHHMQVYPLIMNKLVMPAASRFTDLKIWDEYKVMLKSERLSLEQLRQMQLTKLQTIVRHAYENVPFYRQRFDSIGLHPEDIKSIEDIERIPPTTKDDIMANFPEGITAGGMDRNRWKYVASSGTTRKIMGIHDFRKSTLNWAAGIRAHRLAGNHRMGMKWMEIPPHMCTTICGINDGPKGEKLSTKKLVSLVKEGDFGGAGRHVYEGLYSMRHDLYKRVTLPSFGPEGTNIPESDIVSYLDSIRSYQPHLLEGLPLYLYTFAKYILDKGISAPRVGVIKPFGGSLTPYMKQIIATAFGCEVYDTYGCSELGFMAADCPKHEGVHLFMDLYHVEVRHGDRAAAPGELGKFYVTDLENRAMPWIRYEIGDVGRYFEDDHGCGRRGIRLEVEGRVQDTLVNSQGRFFTSDEVFDFFHRREEIDNFQLTEKSAGRYELLCVPVEGKEVDREGIARDFREFFDTEANVKAYAVKTIKAEDGGKFRFIKAKGHDRL”, the “soluble on expression in E. coli” value is reported as “not soluble”. In the case of “MLLFLTIILILVGGCTPKTKEVVLKNRNYVVIKEGKPALSEEDIIKLSRSLYVNKVNRPEVLRALKSLLTKRESLKYAFYRMKLYENIIVPILRSYGLPEEFKYLPIVESMYNPFAVSRSGAAGIWQLMPQTARRYGLIVRKDYDERFDVVKSTHAAAKYLRDLLEEFKNLELVLAAYNCGENCIRRNVNYNFWKERRKLPKETQNYVPLFLATLLIAQNPEYYGIHLYEPSREIAIVKVGIPMSVEDFLIMYSMNESRFRDLNPHIRGRKIPKNANVYVEERKLVKGEYLLRARGREE”, the “soluble on expression in E. coli” value is reported as “not soluble”. For “MAIIPKNYARLESGYREKALKIYPWVCGRCSREFVYSNLRELTVHHIDHDHTNNPEDGSNWELLCLYCHDHEHSKYTEADQYGTTVIAGEDAQKDVGEAKYNPFADLKAMMNKKK”, the “soluble on expression in E. coli” value was “not soluble”. With “YPPSMDWRKKGNFVSPVKNQGSCGSCWTFSTTGALESAVAIATGKMLSLAEQQLVDCAQNFNNHGCQGGLPSQAFEYIRYNKGIMGEDTYPYKGQDDHCKFQPDKAIAFVKDVANITMNDEEAMVEAVALYNPVSFAFEVTNDFLMYRKGIYSSTSCHKTPDKVNHAVLAVGYGEENGIPYWIVKNSWGPQWGMNGYFLIERGKNMCGLAACASYPIPLV” the “soluble on expression in E. coli” value was “soluble”. With “MVSSLLMSFAPATVRVYATSTKGGSGGPKEEKNPIDFVLGFMTKQDQFYETNPLLKKVDEKEGTTTGGRGTVRGGKNSAPTPVPKKSEGGFGGLGSLFKK” the “soluble on expression in E. coli” value was “not soluble”. In the case of “MVNAEEQQYLNLVQYIINHGEDRPDRTGTGTLSVFAPSPLKFSLRNKTFPLLTTKRVFIRGVIEELLWFIRGETDSLKLREKNIHIWDANGSREYLDSIGLTKRQEGDLGPIYGFQWRHFGAEYIDCKTNYIGQGVDQLANIIQKIRTSPYDRRLILSAWNPADLEKMALPPCHMFCQFYVHIPSNNHRPELSCQLYQRSCDMGLGVPFNIASYALLTCMIAHVCDLDPGDFIHVMGDCHIYKDHIEALQQQLTRSPRPFPTLSLNRSITDIEDFTLDDFNIQNYHPYETIKMKMSI”, the “soluble on expression in E. coli” value is reported as “soluble”. In the case of “MKTFNAGRNADTEDELWVVEHPPVFTQGLAGKPEHLLIRDDIPVVQIDRGGQITYHGPGQLVVYTMIDFKRRKTSVRNIVSALENSIIATLAEYGIEAAADPKRPGVYVGERKIASLGLRIKNGSVYHGLALNVNMDLSPFTHINPCGYAGMEMTQIADFVQPCPTPDEVAAKLTAHLETQFTPKADNNE”, the “soluble on expression in E. coli” value is reported as “not soluble”. In the case of “MQCLQFDSINLIEHILPDVRFWLVPPSRTHHLHEHFHHISWQTEAIPQTESKPDKPWFALPQTSERQKPEHILVIGAGISGAATAHALASHGISVTVLEARKAAQAASGNRQGLLYAKISPHDTEQTELLLAGYGYTKRLLGHILPESETWGGNGIIHLNYSRTEQQRNHELGLQKHHNHLYRSITSAEAEKIAGIPLSVPYDHPSCGLYWQHGVWLNPPAFVRTLLNHPLIGLHEDTPLTDISHDGEKWIASTPNGTFTATHIIYCTGANSPYLPETNLAALPLRQIRGQTGLTPSTPFSEQLRCAVSGESYISPSWHGLHCYGASFIPNSSHTGWNEAEEASNRQALAHLNPALSESLFAANPNPQKHQGHAAIRCDSPDHLPLVGALGDIAAMRQTYTKLALDKNYRIDTPCPYLPNAYVNTAHGTRGLATAPICAAAIAAQILGLPHPFSQRLRHALHPNRTIIRAIVRRKDLTPLEHHHHHH”, the “soluble on expression in E. coli” value is reported as “not soluble”. For “MSLRVLFLRPDNEDNELNEKLMILRKNGIEVLNIPIFKIKCVSYSLPTYDYEALAFTSRNSVICFKDRTLIKNVHKIYAIGEETAELLMKMYNVNPITPERFTSIELAKRILEDKVNSILSIRSRKASEDMRNILNGKIKYDEIYVYDSEIIRDNINEISKILTECEVDAIAFTSSLMAKLIGPFIRGKCNIIIFSIGPMTTETLKRVNNKVKIIESKTHSIKGIIETILVEMKRNGRDEGHHHHHH”, the “soluble on expression in E. coli” value was “soluble”. With “MGHHHHHHSHMAKAITGVVCYACRIASTLLLYQELMRKGIRWLIELIKDDYNETVHKKTEVVITLDFCIRNIEKTVKVYEKLMKINLEAAELGEISDIHTKLLRLSSSQGTIETSLQDIDSRLSPGGSLADAWAHQEGTHPKDRNVEKLQVLLNCMTEIYYQFKKDKAERRLAYNEEQIHKFDKQKLYYHATKAMTHFTDECVKKYEAFLNKSEEWIRKMLHLRKQLLSLTNQCFDIEEEVSKYQEYTNELQETLPQKMFTASSGIKHTMTPIYPSSNTLVEMTLGMKKLKEEMEGVVKELAENNHILERFGSLTMDGGLRNVDCL” the “soluble on expression in E. coli” value was “not soluble”.
